Read-outs that look alike come from different tables or passages of the source.
Tests used:
TNF-alpha = test: cell-based or functional assay
[1] = in monkeys, literature [6]; cited from earlier work
[2] = pharmacokinetics in SD rats, sandwich ELISA (Example 15); assay type: in vivo, SD (Sprague-Dawley) rats; conditions: SD rats, intraperitoneal, 5 nmol/kg
Protocol: To evaluate the pharmacokinetics profiles for the GLP-1 containing fusion proteins generated using the method of the invention, we purified the recombinant fusion proteins of GLP-1-Fn8-COL18NC1, GLP1(A8G/G22E/R36G)-Fn8-p246-COL18NC1 and GLP1(A8G/G22E/R36G)-Fn8-p285-COL18NC1 in PBS buffer, pH 7.2. These fusion proteins were administered into SD (Sprague-Dawley) rats by intraperitoneal injections at the dose of 5 nmol/kg for animals, respectively. Blood samples were taken at various time points after injections such as 0-min, 30-min, 1-hour, 2-hour, 4-hour, 6-hour, 8-hour, 24-hour, 48-hour, 3-day, 4-day, 5-day, 6-day and 7-day. The serum samples were centrifuged and kept at −80° C. freezer.
(§1) The GLP-1 concentrations within the samples were examined by use of the sandwich ELISA method. The rabbit polyclonal antibody against human Fibronectin at the concentration of 3 ug/ml (Ab299, Abcam company) was coated on ELISA plate for 1 hour at room temperature. Then the plate was washed by PBST buffer three times and the wells were blocked by PBS with 10% FBS for 1 hour at room temperature. The plate was washed three times before the serum samples containing GLP-1 fusion proteins were added. The serum samples could be diluted to 20-10000 folds before use. The ELISA plate was incubated with the serum samples at room temperature for 1 hour and then washed by PBST buffer five times. Then mouse monoclonal against human GLP-1 peptide antibody (sc57510, Santa Cruz Biotechnology) at the concentration of 1 ug/ml in PBST buffer was added to the wells. The plate was washed extensively after incubation of 1 hour at room temperature. The secondary antibody, […] HRP conjugated antibody (Beijing ZSGB-Bio company, ZB 5301), was added into the wells and the color was developed using TMB (3,3′,5,5′-tetramethylbenzidine, BD Biosciences, Cat 555214). The plate reader (Bio-Rad microplate reader Model 680) was utilized to obtain the OD450 readings. This method has been calibrated using purified proteins first.
The pharmacokinetics parameters were obtained by using the WinNonlin software (Table 5).

[3] = analytical gel filtration (Superdex200), apparent molecular weight; assay type: physicochemical
Excerpt: In the fusion protein of GLP-1(A8G/G22E)-Fn8-COL18NC1 described in example 4, the flexible unstructured linker between Fn8 and COL18NC1 contains six residues (GGGSGG; SEQ ID NO:89). To generate the flexible un-structured linkers with different lengths, we have synthesized the genes GLP-1(A8G/G22E/R36S)-Fn8-COL18NC1-20, GLP-1(A8G/G22E/R36S)-Fn8-COL18NC1-30, GLP-1(A8G/G22E/R36S)-Fn8-COL18NC1-54 and GLP-1(A8G/G22E/R36S)-Fn8-COL18NC1-60. In these genes, the length of the flexible unstructured polypeptide linker between Fn8 and COL18NC1 contained 20, 30, 54 and 60 residues, respectively. The protein sequences of GLP-1(A8G/G22E/R36S)-Fn8-COL18NC1-20, GLP-1(A8G/G22E/R36S)-Fn8-COL18NC1-30, GLP-1(A8G/G22E/R36S)-Fn8-COL18NC1-54 and GLP-1(A8G/G22E/R36S)-Fn8-COL18NC1-60 are listed as SEQ ID NO:8-11. The synthetic genes of GLP-1(A8G/G22E/R36S)-Fn8-COL18NC1-20, GLP-1(A8G/G22E/R36S)-Fn8-COL18NC1-30, GLP-1(A8G/G22E/R36S)-Fn8-COL18NC1-54 and GLP-1(A8G/G22E/R36S)-Fn8-COL18NC1-60 were grafted to the pET29b by NdeI and XhoI for protein expressions. The expression and purification of these fusion proteins were carried out using similar protocols described in example 3. To estimate the hydrodynamic radius and/or the Rg of the fusion proteins, the purified proteins were loaded on an analytical gel filtration column Superdex200 (GE Healthcare).
Moreover, the flexible unstructured linker between the therapeutic polypeptide and the scaffold protein may adjust the hydrodynamic radius and/or the Rg of the fusion molecule in a tunable manner.
The apparent molecular weights of the fusion proteins were estimated by use of an analytical gel filtration column Superdex-200 (GE Healthcare) mounted on the AKTA FPLC system (GE Healthcare). The purified fusion proteins GLP-1-Fn8, GLP-1-Fn8-COL18NC1, GLP-1(A8G/G22E/R36G)-Fn8-p246-COL18NC1 were loaded on the Superdex200 column. GLP-1-Fn8 is a fusion protein of GLP-1 and Fn8 and contains the first 144 amino acid residues of the fusion protein GLP-1-Fn8-COL18NC1 (SEQ ID NO:2). […] The genuine molecular weights for the fusion proteins GLP-1-Fn8 monomer, GLP-1-Fn8-COL18NC1 trimer, and GLP-1(A8G/G22E/R36G)-Fn8-p246-COL18NC1 trimer were ˜15 Kd, 65 Kd and 123Kd, respectively.

[4] = target: human GLP-1 receptor (GLP-1R) (human, UniProt P43220 24-463); test: cell-based or functional assay
[5] = pharmacokinetics in Sprague-Dawley rats, sandwich ELISA (Example 6); assay type: in vivo; conditions: Sprague-Dawley rat, intraperitoneal, 0.66/0.72/0.75/0.78 mg/kg respectively
Protocol: To evaluate the pharmacokinetics profiles for the GLP-1 containing fusion proteins generated using the method of the invention, we purified GLP-1(A8G/G22E/R36S)-Fn8-COL18NC1, GLP-1(A8G/G22E/R36S)-Fn8-COL18NC1-20, GLP-1(A8G/G22E/R36S)-Fn8-COL18NC1-30, GLP-1(A8G/G22E/R36S)-Fn8-COL18NC1-54 in PBS buffer, pH 7.2. These fusion proteins were administered on Sprague-Dawley (SD) rats by intraperitoneal injections at the doses of 0.66 mg/kg, 0.72 mg/kg, 0.75 mg/kg, 0.78 mg/kg animal respectively. Blood samples were taken at various time points after injections such as 0-min, 30-min, 1-hour, 2-hour, 4-hour, 8-hour, 24-hour, 48-hour, 3-day, 4-day, 5-day. 7-day, 10-day. The serum samples were centrifuged and kept at −80° C. freezer.
as §1, with “within the serum samples were” for “within the samples were”, “Santa Cruz Biotechology) at the” for “Santa Cruz Biotechnology) at the”
The pharmacokinetics parameters were obtained by using the WinNonlin software (Table 3).

| Molecule | ED50, block of the apoptosis of L-929 mouse fibroblast cells induced by TNF-alpha (0.25 ng/mL) in the presence of actinomycin D (TNF-alpha) | half life [1] | half life [2] | apparent molecular weight [3] | EC50 (nM) measured by cAMP assay [4] | AUC(0-t) [5] | AUCinf [5] | CL [5] | Cmax [5] | T½ [5] | V [5] |
| --- | --- | --- | --- | --- | --- | --- | --- | --- | --- | --- | --- |
| TNFR2-Fc fusion protein (R&D Systems) | 5 ng/mL |  |  |  |  |  |  |  |  |  |  |
| GLP-1-Fc fusion protein: GLP-1-Fc fusion protein of literature reference [6] (LY2189265) |  | ~51 h |  |  |  |  |  |  |  |  |  |
| GLP-1-Fn8-COL18NC1: fusion of GLP-1, Fn8 and COL18NC1; SEQ ID NO: 2; abbreviated NC1 in Table 5 (protein) HAEGTFTSDVSSYLEGQAAKEFIAWLVKGRGGGGSGGGGSAVPPPTDLRFTNIGPDTMRVTWAPPPSIDLTNFLVRYSPVKNEEDVAELSISPSDNAVVLTNLLPGTEYVVSVSSVYEQHESTPLRGRQKTGGGGSGGGASSGVRLWATRQAMLGQVHEVPEGWLIFVAEQEELYVRVQNGFRKVQLEARTPLPRG |  |  | 5.3 h | ~100 Kd |  |  |  |  |  |  |  |
| GLP-1(A8G/G22E/R36S)-Fn8-COL18NC1-30 (ligand) HGEGTFTSDVSSYLEEQAAKEFIAWLVKGSGGGGSGGAVPPPTDLRFTNIGPDTMRVTWAPPPSIDLTNFLVRYSPVKNEEDVAELSISPSDNAVVLTNLLPGTEYVVSVSSVYEQHESTPLRGRQKTGGGGGSGGGGSASSASTGGPSGGGGSGGGGSGASSGVRLWATRQAMLGQVHEVPEGWLIFVAEQEELYVRVQNGFRKVQLEARTPLPRG |  |  |  | larger apparent molecular weight than their genuine molecular weight | 1.3 nM | 47580 ng·h/mL | 47600 ng·h/mL | 0.7673 mL/min/kg | 2150 ng/mL | 7.22 h | 0.47981 L/kg |
| GLP-1(A8G/G22E/R36S)-Fn8-COL18NC1-20 (ligand) HGEGTFTSDVSSYLEEQAAKEFIAWLVKGSGGGGSGGAVPPPTDLRFTNIGPDTMRVTWAPPPSIDLTNFLVRYSPVKNEEDVAELSISPSDNAVVLTNLLPGTEYVVSVSSVYEQHESTPLRGRQKTGGGGGSGGGGSGGGGSGGGGSGASSGVRLWATRQAMLGQVHEVPEGWLIFVAEQEELYVRVQNGFRKVQLEARTPLPRG |  |  |  | larger apparent molecular weight than their genuine molecular weight | 1.4 nM | 36210 ng·h/mL | 37240 ng·h/mL | 0.9505 mL/min/kg | 2260 ng/mL | 6.45 h | 0.53016 L/kg |
| GLP-1(A8G/G22E/R36S)-Fn8-COL18NC1-54 (ligand) HGEGTFTSDVSSYLEEQAAKEFIAWLVKGSGGGGSGGAVPPPTDLRFTNIGPDTMRVTWAPPPSIDLTNFLVRYSPVKNEEDVAELSISPSDNAVVLTNLLPGTEYVVSVSSVYEQHESTPLRGRQKTGGGGGSGGGGSTASSASTGGPSGGGGSGGGGSAPSSGSTSGGTAAGGGGSGGGGSGASSGVRLWATRQAMLGQVHEVPEGWLIFVAEQEELYVRVQNGFRKVQLEARTPLPRG |  |  |  | ~200 Kd | 0.5 nM | 86640 ng·h/mL | 86670 ng·h/mL | 0.451 mL/min/kg | 2640 ng/mL | 9.10 h | 0.35086 L/kg |
